Common to all, as to conditions: Xenopus laevis; Oocyte
Substrate in data set [1]: N[C@@H](Cc1c[nH]c2ccccc12)C(=O)O
Description: (§1) TP_TRANSPORTER: uptake in Xenopus laevis oocytes
Substrate in data set [2]: N[C@@H](Cc1ccc(O)c(O)c1)C(=O)O
Description: as §1
Substrate in data set [3]: N[C@@H](Cc1ccc(O)cc1)C(=O)O
Description: as §1
Substrate in data set [4]: N[C@@H](Cc1ccccc1)C(=O)O
Description: as §1
Substrate in data set [5]: N[C@H](Cc1ccccc1)C(=O)O
Description: as §1

For orientation: Km means the concentration of substrate that gives half-maximal velocity.

B1: SLC16A10 protein (Homo sapiens), Q05BR4 (protein)
chain: MVLSQEEPDSARGTSEAQPLGPAPTGAAPPPGPGPSDSPEAAVEKVEVELAGPATAEPHEPPEPPEGGWGWLVMLAAMWCNGSVFGIQNACGVLFVSMLETFGSKDDDKMVFKTAWVGSLSMGMIFFCCPIVSVFTDLFGCRKTAVVGAAVGFVGLMSSSFVSSIEPLYLTYGIIFACGCSFAYQPSLVILGHYFKKRLGLVNGIVTAGSSVFTILLPLLLRVLIDSVGLFYTLRVLCIFMFVLFLAGFTYRPLATSTKDKESGGSGSSLFSRKKFSPPKKNFQFCHLQGDSLCSVGSWNTTCTFWILCALCSLGEYAPSLIMNITI
On to B1, for which the Km in data set [1] is 452 µM; in data set [2], 1210 µM; in data set [3], 636 µM; in data set [4], 740 µM; in data set [5], 2300 µM.

The values above are taken from ChEMBL document CHEMBL2073921, “The human T-type amino acid transporter-1: characterization, gene organization, and chromosomal location” (Genomics, 2002).
